Results taken from the supplement of paper PMC11780869.

Tested on: Bacillus subtilis
Experiment: cleaved RNA product abundance (RNA/gDNA barcode ratio) relative to median wild-type variant (ratio to wild type); higher = more accumulation of the downstream cleavage product
Conditions: experiment (reporter, strain, medium): exp 2b: truncated aprE reporter, strain BJT200; cleavage site: cggR-gapA (positions -7 to +36 mutated)
In short: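 Reporter mRNAs based on truncated aprE or tetM carried barcoded, mutagenized RNase Y cleavage-site windows built from oligos with a 9% error rate and were integrated into the B. subtilis chromosome. Cultures grew in LB at 37°C from OD600 0.0003 to 0.3. Cleaved RNA was gel-selected, reverse transcribed and barcode-sequenced together with genomic DNA barcodes, and UMIs were collapsed. Cleaved product abundance is the per-construct ratio of RNA to gDNA barcodes, scaled to the median of constructs carrying the unmutated site.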

Sequence | cleaved RNA product abundance
ACAGACGAAGGAGCCGCAAAGAAGTTATTAAGGGATAAATAATCCTTCAATATAAATATCTCTCACTTATTTAAA | 0.303
ACAGACGAAGGAGCCGCAAAGAAGTTATTAAGCGATGAATAATCGCTCAATATAAATATCTCTCACTTATTTAAA | 0.561
ACAGACGAAGGAGCCGCAAAGAAGTTATTAAGGGATGAATATTCTCTCAATATAAATATCTCTCACTTATTTAAA | 0.265
ACAGACGAAGGAGCCGCAAAGAAGTTATTAATGTATGAATAATCCCTCAATATAAATATCTCTCACTTATTTAAA | 0.101
ACAGACGAAGGAGCCGCAAATAAGTTTTTAAGGGATGAATAATCCCTCAATATAAATATCTCTCACTTATTTAAA | 0.29
ACAGACGAAGGAGCCGCAAAGAAGTTATTAAGGGATGAATAATCCCTCATTATAAATCTCTCTCACTTATTTAAA | 0.236
ACAGACGAAGGAGCCGCAAAGAAGTTATTAAGGGATAAATAATCCCTCACTATAAATATCTCTCACTTATTTAAA | 0.247
ACAGACGAAGGAGCCGCAAAGAAATTATTAGGGGATGAATAATCCCTCCATATAAATATCTCTCACTTATTTAAA | 0.188
ACAGACGAAGGAGCCGCAAAGAAGTTATAAACGGATGAATAATCCCTCAATATAAATATCTCTCACTTATTTAAA | 0.132
ACAGACGAAGGAGCCGCAAAGAAGTTATTAAGGCATGAATAATCCCTCAATATAAATAACTCTCACTTATTTAAA | 0.0904
ACAGACGAAGGAGCCGCAAAGAAGTAATTAAGGGATGAATGATCCCTCAATATAAATATCTCTCACTTATTTAAA | 0.134
ACAGACGAAGGAGCCGCAAAGAAGTTATTAAGGGATGAATAATCCCTCAATATAAAGATCTCTCACTTATTTAAA | 0.666
ACAGACGAAGGAGCCGCAAAGAAGTTATTAAGGGATGAAAAATTCCTCAATATAAATATCTCTCACTTATTTAAA | 0.274
ACAGACGAAGGAGCCGCAAAGAAGTTATTAAGCGATGAATAATCCATCAATATAAATATCTCTCACTTATTTAAA | 0.121
ACAGACGAAGGAGCCGCAAAGAAGTGATTAAGGGATGAATAATACCTCAATATAAATATCTCTCACTTATTTAAA | 0.105

Same assay, conditions: experiment (reporter, strain, medium): exp 4a: truncated aprE reporter, strain BJT201 with 2% xylose (RNase J1 expressed); cleavage site: cggR-gapA (positions -7 to +36 mutated)

Sequence | cleaved RNA product abundance
ACAGACGAAGGAGCCGCAAAGAAGTTATTAAGGGATAAATAATCCTTCAATATAAATATCTCTCACTTATTTAAA | 0.338
ACAGACGAAGGAGCCGCAAATGAGTTATTAAGGGATGAATAATCCCTCAATATAAATATCTCTCACTTATTTAAA | 1.15
ACAGACGAAGGAGCCGCAAAGAACTTATTAACGGATGAATAATCCCTCAATATAAATATCTCTCACTTATTTAAA | 0.112
ACAGACGAAGGAGCCGCAAAGAAGTTATTAAGGGATGCATAAGCCCTCAATATAAATATCTCTCACTTATTTAAA | 0.732
ACAGACGAAGGAGCCGCAAAGAAGTTATTAAGGGATAAAGAATCCCTCAATATAAATATCTCTCACTTATTTAAA | 0.629
ACAGACGAAGGAGCCGCAAAGAAGTTATTAAGGGAACAATAATCCCTCAATATAAATATCTCTCACTTATTTAAA | 0.79
ACAGACGAAGGAGCCGCAAAGAAGTTATTAAGCGATGAATAATCCCACAATATAAATATCTCTCACTTATTTAAA | 0.0785
ACAGACGAAGGAGCCGCAAAGAAGTTATTAAGCGATGAATAATCGCTCAATATAAATATCTCTCACTTATTTAAA | 0.726
ACAGACGAAGGAGCCGCAAAGAAGTTATTAAGGGATAAATAAACCCTCAATATAAATATCTCTCACTTATTTAAA | 0.445
ACAGACGAAGGAGCCGCAAAGAAGTTATTAAGGGATGAATATTCTCTCAATATAAATATCTCTCACTTATTTAAA | 0.343
ACAGACGAAGGAGCCGCAAAGAAGTTATCAAGGGATGAATAATGCCTCAATATAAATATCTCTCACTTATTTAAA | 0.19
ACAGACGAAGGAGCCGCAAAGAAGTTATTAATGTATGAATAATCCCTCAATATAAATATCTCTCACTTATTTAAA | 0.1
ACAGACGAAGGAGCCGCAAAGAAGTTATTAAGGGATGAATAATCCATCCATATAAATATCTCTCACTTATTTAAA | 0.222
ACAGACGAAGGAGCCGCAAATAAGTTTTTAAGGGATGAATAATCCCTCAATATAAATATCTCTCACTTATTTAAA | 0.402
ACAGACGAAGGAGCCGCAAAGAAGTTATTAAGGGATGTAAAATCCCTCAATATAAATATCTCTCACTTATTTAAA | 1.04
ACAGACGAAGGAGCCGCAAAGAAGTTATTAAGGGATAAATAATCCCTCACTATAAATATCTCTCACTTATTTAAA | 0.193
ACAGACGAAGGAGCCGCAAAGAAGTTATTACGGGATGATTAATCCCTCAATATAAATATCTCTCACTTATTTAAA | 0.204
ACAGACGAAGGAGCCGCAAAGAAGTTATAAACGGATGAATAATCCCTCAATATAAATATCTCTCACTTATTTAAA | 0.181
ACAGACGAAGGAGCCGCAAAGAAGTTATTAAGGCATGAATAATCCCTCAATATAAATAACTCTCACTTATTTAAA | 0.111

Sequence | cleaved RNA product abundance
ACAGACGAAGGAGCCGCAAAGAGGTTATTAAGTGATGAATAATCCCTCAATATAAATATCTCTCACTTATTTAAA | 0.0848
ACAGACGAAGGAGCCGCAAAGAAGTTATTAAGGGATGAATCATCCATCAATATAAATATCTCTCACTTATTTAAA | 0.219
ACAGACGAAGGAGCCGCAAAGAAGTTTTTAAAGGATGAATAATCCCTCAATATAAATATCTCTCACTTATTTAAA | 0.192
ACAGACGAAGGAGCCGCAAGGAAGTTATTAAGGGATGATTAATCCCTCAATATAAATATCTCTCACTTATTTAAA | 0.959
ACAGACGAAGGAGCCGCAAAGAAGTTATTAAGGGATTAATAATCCCTCAGTATAAATATCTCTCACTTATTTAAA | 0.224
ACAGACGAAGGAGCCGCAAACAAGTTATTAAGGGCTGAATAATCCCTCAATATAAATATCTCTCACTTATTTAAA | 0.471
ACAGACGAAGGAGCCGCAAAGAAGTTGTTAAGGAATGAATAATCCCTCAATATAAATATCTCTCACTTATTTAAA | 0.136
ACAGACGAAGGAGCCGCAAAGGAGTTATTAAGGGATGAATAATCCCTCAATATCAATATCTCTCACTTATTTAAA | 0.134
ACAGACGAAGGAGCCGCAAAGAAGTTATCAAGGGATGAATAATCCATCAATATAAATATCTCTCACTTATTTAAA | 0.321
ACAGACGAAGGAGCCGCAAAGAAGTTATTAAGGGATGAATAATCCCTCAATATAAAGATCTCTCACTTATTTAAA | 0.627
ACAGACGAAGGAGCCGCAAAGAAGTTCTTAAGGGATCAATAATCCCTCAATATAAATATCTCTCACTTATTTAAA | 0.205
ACAGACGAAGGAGCCGCAAAGAAGTTATTAAGGGATGAAAAATTCCTCAATATAAATATCTCTCACTTATTTAAA | 0.327
ACAGACGAAGGAGCCGCAGAGAAGTTATTAAGGTATGAATAATCCCTCAATATAAATATCTCTCACTTATTTAAA | 0.137
ACAGACGAAGGAGCCGCAAAGAAGTTATTAAGGGATGCATAATCTCTCAATATAAATATCTCTCACTTATTTAAA | 0.725
ACAGACGAAGGAGCCGCAAAGAAGTTATTAAGGGATGAATAATCCATCAATACAAATATCTCTCACTTATTTAAA | 0.0901
ACAGACGAAGGAGCCGCAAAGAAGTTGTTCAGGGATGAATAATCCCTCAATATAAATATCTCTCACTTATTTAAA | 0.446
ACAGACGAAGGAGCCGCAAAGAAGTTATTAAGCGATGAATAATCCATCAATATAAATATCTCTCACTTATTTAAA | 0.154
ACAGACGAAGGAGCCGCATAGAAGTTATTAAGGGATGAATACTCCCTCAATATAAATATCTCTCACTTATTTAAA | 0.618
ACAGACGAAGGAGCCGCAAAGAAGTGATTAAGGGATGAATAATACCTCAATATAAATATCTCTCACTTATTTAAA | 0.0889

Same assay, conditions: experiment (reporter, strain, medium): exp 6: tetM reporter, strain 168; cleavage site: cggR-gapA (positions -7 to +36 mutated)

Sequence | cleaved RNA product abundance
ACAGACGAAGGAGCCACAAAGAAGTTATTAAAGGATGAATAATCCCTCAATATAAATATCTCTCACTTATTTAAA | 0.254

Same assay, conditions: experiment (reporter, strain, medium): exp 8a: truncated aprE reporter, strain BJT201 with 2% xylose (RNase J1 expressed); cleavage site: glnRA (positions -5 to +31 mutated)

Sequence | cleaved RNA product abundance
CGACATGTCCCGCTTCTTTCATTACTCCGTTAGCAACTGTTTTGCTAAATACATTTACCTTTTAAGAGGAGGAAT | 1.11
CGACATGTCCCGCTTCTTTCATTAATCCGTTGGCAACTGTTTTGCTATGTACATTTACCTTTTAAGAGGAGGAAT | 0.1
CGACATGTCCCGCTTCTTTCATTAATCCGTTAGCAACAGTTTTGCTATACACATTTACCTTTTAAGAGGAGGAAT | 0.557
CGACATGTCCCGCTTCTTTCATTAATACGTTAGTAACTGTTTTGCTATATACATTTACCTTTTAAGAGGAGGAAT | 0.334
CGACATGTCCCGCTTCTTTCATTAATCCGTTAGCAACTGTTTTGCTATATAAAATTACCTTTTAAGAGGAGGAAT | 0.606
CGACATGTCCCGCTTCTTTCATTAATCCGTTAGCAATTGTTTTGCTATATACTTTTACCTTTTAAGAGGAGGAAT | 0.272
CGACATGTCCCGCTTCTTTCATTAATCCGTTAGCAACTGTTTTGCAATATACCTTTACCTTTTAAGAGGAGGAAT | 0.29
CGACATGTCCCGCTTCTTTCATTAATCCATTAGCAACTGTTTTGATATATACAGTTACCTTTTAAGAGGAGGAAT | 0.247
CGACATGTCCCGCTTCTTTCATTAATCCTTTAACAACTGTTTTGCTATATACATTTACCTTTTAAGAGGAGGAAT | 0.154
CGACATGTCCCGCTTCTTTCATTAATCCGTTAGCAACTTTTTTGCTATATTCATTTACCTTTTAAGAGGAGGAAT | 0.521
CGACATGTCCCGCTTCTTTCATTATTCCGTTAGCAACTGTTCTGCTATATACATTTACCTTTTAAGAGGAGGAAT | 0.551
CGACATGTCCCGCTTCTTTCATTAATCCGTTAGCAACTGTTTTGCTAGATACATTTACATTTTAAGAGGAGGAAT | 0.424
CGACATGTCCCGCTTCTTTCATTAATCCGTTTGCAACTATTTTGCTATATACATTTACCTTTTAAGAGGAGGAAT | 0.859
CGACATGTCCCGCTTCTTTCATTAATACTTTAGCAACTGTTTTGCTATATACATTTACCTTTTAAGAGGAGGAAT | 0.611
CGACATGTCCCGCTTCTTTCATTAATCCGTTAGCAAATGTTTTGCTATATACATTTACCATTTAAGAGGAGGAAT | 1.4
CGACATGTCCCGCTTCTTTCATTAATCCGTTAGCAACTGTTTTACTATATACATTTAACTTTTAAGAGGAGGAAT | 0.539
CGACATGTCCCGCTTCTTTCATTAATCCGTTAACAAATGTTTTGCTATATACATTTACCTTTTAAGAGGAGGAAT | 0.287
CGACATGTCCCGCTTCTTTCATTAATCCGTTAGCAACTGTTATGCTATATACCTTTACCTTTTAAGAGGAGGAAT | 0.184
CGACATGTCCCGCTTCTTTCATTAATCCGTTAGAAACTGTATTGCTATATACATTTACCTTTTAAGAGGAGGAAT | 0.321
